Assay results from the supplement of paper PMC9170038.

Test system: K4 kissing-loop RNA reporter
Assay: apparent KD of K4 kissing-loop reporter; higher = weaker reporter binding
Settings: Eterna round: R107
Protocol: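 RNA-MaP round R107: designed RNA switches with theophylline, tryptophan, arginine or FMN aptamers are transcribed on-chip within common flanks. They are titrated with a labelled K4 kissing-loop RNA reporter in RNA-MaP buffer (100 mM Tris pH 7.5, 80 mM KCl, 4 mM MgCl2), without ligand or with the indicated ligand. Median apparent KD per design.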

[1] = input ligand: theophylline 20 uM
[2] = input ligand: tryptophan 2.4 mM
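Note: bound reporter read as fluorescence of individual clusters on recovered sequencing chips by microscopy, with normalized cluster intensities fitted with a binding model.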

Question: How did the “apparent KD of K4 kissing-loop reporter” value (input ligand: FMN 200 uM) turn out when “UUAGAGAUCUCAGGAUAUGAGUGAUGUUGGUGUCAAGAUCUGAGAUAGAAUUCUAUCUCAGAUCAAUCAGAAGGGAGAUCUCAUU [AK2.2 Exc FMN B]” was run?
Answer: 325 nM

Question: What about the “apparent KD of K4 kissing-loop reporter” value (input ligand: arginine 13.2 mM) of the same sequence?
Answer: 294 nM

Question: What about the “apparent KD of K4 kissing-loop reporter” value (input ligand: none) of the same sequence?
Answer: 483 nM

Question: And the “apparent KD of K4 kissing-loop reporter” value [1]?
Answer: 485 nM

Question: And the “apparent KD of K4 kissing-loop reporter” value [2]?
Answer: 413 nM

Question: How did the “apparent KD of K4 kissing-loop reporter” value (input ligand: FMN 200 uM) turn out when “UUAGUCUAGAGAAGGAGCGAGUGAUGUUUGCUAAGAUCUAUGAUAUCAUAGAUCAAAUUUACUCAGGUAGGUCGCUCUAGACAUU [AK4 Exc Arginine B]” was run?
Answer: 294 nM

Question: And the “apparent KD of K4 kissing-loop reporter” value (input ligand: arginine 13.2 mM)?
Answer: 53.1 nM

Question: What about the “apparent KD of K4 kissing-loop reporter” value (input ligand: none) of the same sequence?
Answer: 182 nM

Question: What about the “apparent KD of K4 kissing-loop reporter” value [1] of the same sequence?
Answer: 165 nM

Question: And the “apparent KD of K4 kissing-loop reporter” value [2]?
Answer: 137 nM

Question: “UUAUAUAAGGGAAGGAGCGCGUGGGCGCAGUGAUGUUGCGCCCGACAUCACUUCAACUUAACGCAGGUAGGUCGCCCUUUUAAUA [Arginine B (Excl) V4]” was tested. Which “apparent KD of K4 kissing-loop reporter” value (input ligand: FMN 200 uM) did it give?
Answer: 188 nM

Question: And the “apparent KD of K4 kissing-loop reporter” value (input ligand: arginine 13.2 mM)?
Answer: 194 nM

Question: And the “apparent KD of K4 kissing-loop reporter” value (input ligand: none)?
Answer: 209 nM

Question: And the “apparent KD of K4 kissing-loop reporter” value [1]?
Answer: 206 nM

Question: And the “apparent KD of K4 kissing-loop reporter” value [2]?
Answer: 209 nM

Question: Which “apparent KD of K4 kissing-loop reporter” value (input ligand: FMN 200 uM) does the source give for “UUCAUCGUGGUUCACGGGUGGUAUGAAACGCGAGGACCGGUACGGCCGCCACUCGGUUCCGCUUGUUGAGUGAUGUUCAAUAUUU” here?
Answer: 239 nM

Question: What about the “apparent KD of K4 kissing-loop reporter” value (input ligand: arginine 13.2 mM) of the same sequence?
Answer: 333 nM

Question: What about the “apparent KD of K4 kissing-loop reporter” value (input ligand: none) of the same sequence?
Answer: 290 nM

Question: And the “apparent KD of K4 kissing-loop reporter” value [1]?
Answer: 323 nM

Question: What about the “apparent KD of K4 kissing-loop reporter” value [2] of the same sequence?
Answer: 257 nM

Question: What does the source list for “UUCUUGAUGGAAACAUCGAGGAUUACUGAUACCAGUAUCGAUAGAUACCCUUGGCAGCAGAAUCAGUAAUCACGAGUGAUGUUCG [Ex Theophylline A K4 6]”?
Answer: apparent KD of K4 kissing-loop reporter (input ligand: FMN 200 uM): 662 nM; apparent KD of K4 kissing-loop reporter (input ligand: arginine 13.2 mM): 497 nM; apparent KD of K4 kissing-loop reporter (input ligand: none): 841 nM; apparent KD of K4 kissing-loop reporter [1]: 583 nM; apparent KD of K4 kissing-loop reporter [2]: 460 nM

Question: “UUGAGCCUGACGUAAGUCAGGCUCUGCGAGCGAGGACCGGUACGGCCGCCACUCGGUGCAGUGAUGUUGCAUGGCCGCAAGGCCG [#2 Exclusion - Tryptophan A Attempt #15 (HarryS)]” was tested. Which “apparent KD of K4 kissing-loop reporter” value (input ligand: FMN 200 uM) did it give?
Answer: 278 nM

Question: And the “apparent KD of K4 kissing-loop reporter” value (input ligand: arginine 13.2 mM)?
Answer: 257 nM

Question: What about the “apparent KD of K4 kissing-loop reporter” value (input ligand: none) of the same sequence?
Answer: 363 nM

Question: What about the “apparent KD of K4 kissing-loop reporter” value [1] of the same sequence?
Answer: 259 nM

Question: What about the “apparent KD of K4 kissing-loop reporter” value [2] of the same sequence?
Answer: 339 nM

Question: “UUGAUAUGAUAGUAUCCUGUUUGAUAAAGGCAGGAUAUCGAAAAUUCGAGAAGGGCCAUUAUAUGCAGUGAUGUUGCAAAUAAGU [Exclusion FMN A Gf 24]” was tested. Which “apparent KD of K4 kissing-loop reporter” value (input ligand: FMN 200 uM) did it give?
Answer: 76.8 nM

Question: What about the “apparent KD of K4 kissing-loop reporter” value (input ligand: arginine 13.2 mM) of the same sequence?
Answer: 68.4 nM

Question: What about the “apparent KD of K4 kissing-loop reporter” value (input ligand: none) of the same sequence?
Answer: 52.6 nM

Question: And the “apparent KD of K4 kissing-loop reporter” value [1]?
Answer: 69 nM

Question: And the “apparent KD of K4 kissing-loop reporter” value [2]?
Answer: 43.6 nM

Question: “UUGGAAAUCAGAAGGAGCGUCUAAAAUAAGAGAACCAGUGAUGUUGGUUUUAUUUAAUGAAGACAGGUAGGUCGCUGAAUUUUUA [Same State Arginie B GF 19]” was tested. Which “apparent KD of K4 kissing-loop reporter” value (input ligand: FMN 200 uM) did it give?
Answer: 100 nM

Question: And the “apparent KD of K4 kissing-loop reporter” value (input ligand: arginine 13.2 mM)?
Answer: 95.2 nM

Question: What about the “apparent KD of K4 kissing-loop reporter” value (input ligand: none) of the same sequence?
Answer: 99.3 nM

Question: And the “apparent KD of K4 kissing-loop reporter” value [1]?
Answer: 96.1 nM

Question: What about the “apparent KD of K4 kissing-loop reporter” value [2] of the same sequence?
Answer: 94.9 nM

Question: How did the “apparent KD of K4 kissing-loop reporter” value (input ligand: FMN 200 uM) turn out when “UUGGAGUGAUGUUCCAUGUCUUGAGCCGAAGGAGCGCCUUUCUAGGCAGGUAGGUCGCGGCAGAAGGUACCAGUGAUGUUGGAAA [Same State Arginine A GF9]” was run?
Answer: 161 nM

Question: And the “apparent KD of K4 kissing-loop reporter” value (input ligand: arginine 13.2 mM)?
Answer: 225 nM

Question: And the “apparent KD of K4 kissing-loop reporter” value (input ligand: none)?
Answer: 283 nM

Question: And the “apparent KD of K4 kissing-loop reporter” value [1]?
Answer: 222 nM

Question: And the “apparent KD of K4 kissing-loop reporter” value [2]?
Answer: 164 nM

Question: For “UUGUUUAACUGAAGGAGCGGCAAUUGAUACGUAGAUAUAGUGAUGUUAUAUAAGAUAGAGAGCCAGGUAGGUCGCAGAGGUGUUU [ExArgB.R]”, which “apparent KD of K4 kissing-loop reporter” value (input ligand: FMN 200 uM) is on record?
Answer: 231 nM

Question: What about the “apparent KD of K4 kissing-loop reporter” value (input ligand: arginine 13.2 mM) of the same sequence?
Answer: 227 nM

Question: And the “apparent KD of K4 kissing-loop reporter” value (input ligand: none)?
Answer: 246 nM

Question: What about the “apparent KD of K4 kissing-loop reporter” value [1] of the same sequence?
Answer: 219 nM

Question: What about the “apparent KD of K4 kissing-loop reporter” value [2] of the same sequence?
Answer: 190 nM

Question: With “UUUAUGAUGUCGGCCGCCACUGGAUUAAUAUGUGUGUAAUCUAGUUCUGAGUGAUGUUUAGAGUCCAGGACCGGGACAUUUGUUA [#11 K4 Tryptophan B Exclusion]” as the sequence, how does the “apparent KD of K4 kissing-loop reporter” value (input ligand: FMN 200 uM) read?
Answer: 542 nM

Question: And the “apparent KD of K4 kissing-loop reporter” value (input ligand: arginine 13.2 mM)?
Answer: 373 nM

Question: And the “apparent KD of K4 kissing-loop reporter” value (input ligand: none)?
Answer: 522 nM

Question: What about the “apparent KD of K4 kissing-loop reporter” value [1] of the same sequence?
Answer: 649 nM

Question: And the “apparent KD of K4 kissing-loop reporter” value [2]?
Answer: 452 nM

Question: How did the “apparent KD of K4 kissing-loop reporter” value (input ligand: FMN 200 uM) turn out when “UUUAUUAAGACGGCCGCCACUGAAUUAGAGUGAUGUUCUAAAAUUACUAAAUUAAAUUUAUUCAACAGGACCGGGUCAAUUAUUA [JR_SSTryptoB_Sub010]” was run?
Answer: 399 nM

Question: And the “apparent KD of K4 kissing-loop reporter” value (input ligand: arginine 13.2 mM)?
Answer: 405 nM

Question: And the “apparent KD of K4 kissing-loop reporter” value (input ligand: none)?
Answer: 461 nM

Question: And the “apparent KD of K4 kissing-loop reporter” value [1]?
Answer: 432 nM

Question: What about the “apparent KD of K4 kissing-loop reporter” value [2] of the same sequence?
Answer: 513 nM

Question: With “UUUCUACCGGGAAGGAGCGUGAAUGAUAAUGGAUAUAGUGAUGUUAUAUAUACGAACGAAUCGCAGGUAGGUCGCCCGGAUGACU [SSArgB.T]” as the sequence, how does the “apparent KD of K4 kissing-loop reporter” value (input ligand: FMN 200 uM) read?
Answer: 586 nM

Question: What about the “apparent KD of K4 kissing-loop reporter” value (input ligand: arginine 13.2 mM) of the same sequence?
Answer: 503 nM

Question: What about the “apparent KD of K4 kissing-loop reporter” value (input ligand: none) of the same sequence?
Answer: 724 nM

Question: And the “apparent KD of K4 kissing-loop reporter” value [1]?
Answer: 550 nM

Question: What about the “apparent KD of K4 kissing-loop reporter” value [2] of the same sequence?
Answer: 486 nM

Question: Which results are given for “UUUCUUUUAAUAACACUUUAUACAACUGAAGGAGCGACAAUAAAGUCAGGUAGGUCGCAGAAUUAAUGAGUGAUGUUCAUAUUUA [JR_ExcArginiA_Sub012]”?
Answer: apparent KD of K4 kissing-loop reporter (input ligand: FMN 200 uM): 95.4 nM; apparent KD of K4 kissing-loop reporter (input ligand: arginine 13.2 mM): 197 nM; apparent KD of K4 kissing-loop reporter (input ligand: none): 121 nM; apparent KD of K4 kissing-loop reporter [1]: 180 nM; apparent KD of K4 kissing-loop reporter [2]: 83 nM

Question: With “UUUGGAAGCGGUGUUGAUUAGGGAGCGGAAGGAGCGCCGAUUAUGGCAGGUAGGUCGCCGGAAUGUAGUGAUGUUGCAUAGAGGG [ExArgA.W]” as the sequence, how does the “apparent KD of K4 kissing-loop reporter” value (input ligand: FMN 200 uM) read?
Answer: 209 nM

Question: And the “apparent KD of K4 kissing-loop reporter” value (input ligand: arginine 13.2 mM)?
Answer: 234 nM

Question: And the “apparent KD of K4 kissing-loop reporter” value (input ligand: none)?
Answer: 202 nM

Question: What about the “apparent KD of K4 kissing-loop reporter” value [1] of the same sequence?
Answer: 263 nM

Question: What about the “apparent KD of K4 kissing-loop reporter” value [2] of the same sequence?
Answer: 83.9 nM

Question: What does the source list for “UUUGGAGUGGGAGGAUAUCCUAAUAUGGGUGAUGUUAGCGAUGUUGAAGGUGUAGUGAUGUUAUGCGGAGAAGGCCCACUGUAGA [BDazzled - #19 - Exc. FMN B]”?
Answer: apparent KD of K4 kissing-loop reporter (input ligand: FMN 200 uM): 95 nM; apparent KD of K4 kissing-loop reporter (input ligand: arginine 13.2 mM): 78.8 nM; apparent KD of K4 kissing-loop reporter (input ligand: none): 131 nM; apparent KD of K4 kissing-loop reporter [1]: 85.6 nM; apparent KD of K4 kissing-loop reporter [2]: 89.2 nM
